Key:
[1] = target: Crenotalea thermophila TIR-APAZ after removal of the 6xHis-MBP tag (Crenotalea thermophila); test: SEC-MALS
[2] = target: MapSPARTA complex (heterodimer of MapAgo and MapTIR-APAZ) (Maribacter polysiphoniae); test: SEC-MALS

Row | stoichiometry N [1] | stoichiometry N [2] | Substance
1 | 1 |  | Crenotalea thermophila short pAgo (natural protein)
2 |  | 4 | MapSPARTA complex (heterodimer of MapAgo and MapTIR-APAZ)

Reference: publication PMC9097488
